For series [1], the target named is T1, D10 helicase (wild type) (Bacteriophage T5, UniProt P11107 1-450).
T1 sequence: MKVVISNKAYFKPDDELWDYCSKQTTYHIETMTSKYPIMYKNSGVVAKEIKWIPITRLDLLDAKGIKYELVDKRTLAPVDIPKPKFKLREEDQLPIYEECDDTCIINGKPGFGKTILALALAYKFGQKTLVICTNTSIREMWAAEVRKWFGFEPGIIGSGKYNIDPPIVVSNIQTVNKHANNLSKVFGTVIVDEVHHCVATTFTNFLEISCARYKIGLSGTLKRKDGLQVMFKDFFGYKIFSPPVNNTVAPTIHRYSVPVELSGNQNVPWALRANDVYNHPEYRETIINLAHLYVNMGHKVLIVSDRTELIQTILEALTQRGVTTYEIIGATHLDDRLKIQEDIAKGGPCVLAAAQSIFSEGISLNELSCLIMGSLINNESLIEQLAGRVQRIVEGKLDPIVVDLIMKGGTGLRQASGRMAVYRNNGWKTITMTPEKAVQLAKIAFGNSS
Kind of series: EMSA with poly d(AT) competitor; no ATP/Mg2+; affinity near identical to Y20; bound but not unwound; EMSA: 0.1 nM DNA, 20 mM HEPES-NaOH pH 7.5, 135 mM NaCl, 0.1% NP40 alternative, 0.1 mg/ml BSA, 2 mM DTT, 1 mM EDTA, 10% glycerol, 22 °C, 20 min; footprinting the same with 10 nM DNA and no glycerol. The settings on record: protein: recombinant; tags: GST tag removed with thrombin; label: 5'-32P; three-way Y-junction, three 20 bp arms.

The target of series [2] is T1, D10 helicase (wild type). Kind of series: EMSA with nonspecific competitor DNA; no ATP/Mg2+, 1 mM EDTA; EMSA: 0.1 nM DNA, 20 mM HEPES-NaOH pH 7.5, 135 mM NaCl, 0.1% NP40 alternative, 0.1 mg/ml BSA, 2 mM DTT, 1 mM EDTA, 10% glycerol, 22 °C, 20 min; footprinting the same with 10 nM DNA and no glycerol. The following applies: protein: recombinant; tags: GST tag removed with thrombin; label: 5'-32P; three-way Y-junction, three 20 bp arms, nick in strand A at the junction. On the technique in general: A gel shift assay detects complexes by their altered migration in electrophoresis.

In series [3] the target is T1, D10 helicase (wild type). Kind of series: EMSA with poly d(AT) competitor; no ATP/Mg2+; 0.1 nM DNA, 0.4 nM D10 (all substrate bound); EMSA: 0.1 nM DNA, 20 mM HEPES-NaOH pH 7.5, 135 mM NaCl, 0.1% NP40 alternative, 0.1 mg/ml BSA, 2 mM DTT, 1 mM EDTA, 10% glycerol, 22 °C, 20 min; footprinting the same with 10 nM DNA and no glycerol. The settings on record: protein: recombinant; tags: GST tag removed with thrombin; label: 5'-32P on one strand; three-way Y-junction, three 20 bp arms.

For series [4], the target named is T1, D10 helicase (wild type). Kind of series: EMSA with nonspecific competitor DNA; affinity similar to Y20; EMSA: 0.1 nM DNA, 20 mM HEPES-NaOH pH 7.5, 135 mM NaCl, 0.1% NP40 alternative, 0.1 mg/ml BSA, 2 mM DTT, 1 mM EDTA, 10% glycerol, 22 °C, 20 min; footprinting the same with 10 nM DNA and no glycerol. The following applies: protein: recombinant, tags: GST tag removed with thrombin, label: 5'-32P, three-way Y-junction, three 20 bp arms.

Series [5] addresses T1, D10 helicase (wild type). Put plainly: EMSA; EMSA: 0.1 nM DNA, 20 mM HEPES-NaOH pH 7.5, 135 mM NaCl, 0.1% NP40 alternative, 0.1 mg/ml BSA, 2 mM DTT, 1 mM EDTA, 10% glycerol, 22 °C, 20 min; footprinting the same with 10 nM DNA and no glycerol. The following applies: protein: recombinant; tags: GST tag removed with thrombin; label: 5'-32P; four-way non-homologous Holliday junction, four 20 bp arms.

A further series has as its target T2, D10 R389N (Bacteriophage T5, UniProt P11107 1-450, R389N).
T2 sequence: T1 sequence with R389N
Put plainly: EMSA; binding equivalent to wild type; not unwound; EMSA: 0.1 nM DNA, 20 mM HEPES-NaOH pH 7.5, 135 mM NaCl, 0.1% NP40 alternative, 0.1 mg/ml BSA, 2 mM DTT, 1 mM EDTA, 10% glycerol, 22 °C, 20 min; footprinting the same with 10 nM DNA and no glycerol. The settings on record: protein: recombinant; tags: GST tag removed with thrombin; label: 5'-32P; four-way non-homologous Holliday junction, four 20 bp arms.

Series [6] deals with T1, D10 helicase (wild type). Kind of series: EMSA with poly d(AT) competitor; no ATP/Mg2+; affinity near identical to Y20; EMSA: 0.1 nM DNA, 20 mM HEPES-NaOH pH 7.5, 135 mM NaCl, 0.1% NP40 alternative, 0.1 mg/ml BSA, 2 mM DTT, 1 mM EDTA, 10% glycerol, 22 °C, 20 min; footprinting the same with 10 nM DNA and no glycerol. The following applies: protein: recombinant; tags: GST tag removed with thrombin; label: 5'-32P; three-way Y-junction, three 20 bp arms.

Where a chain is given by its changes, count along the chain named.

B1: Y20'' (dsDNA)
DNA 1: TTCGAAACGTGCGGAATCATACGGGCGGCTTAACGGTGAT
DNA 2: ATCACCGTTAAGCCGCCCGTCGACCAAGAGCTCGGTACCC
DNA 3: GGGTACCGAGCTCTTGGTCGATGATTCCGCACGTTTCGAA
As to B1, the binding result with D10 helicase (wild type) [1] is “binds”.

B2: Y20-3 (oligo A nicked) (dsDNA)
DNA 1: TTCGAAACGTGCGCGCCCAT
DNA 2: ACGCCAAGCTTAACGGTGAT
DNA 3: ATCACCGTTAAGCTTGGCGTCGAATTCGAGCTCGGTACCC
DNA 4: GGGTACCGAGCTCGAATTCGATGGGCGCGCACGTTTCGAA
For B2, the binding signal in the series with D10 helicase (wild type) [2] is ~2 fold lower affinity than Y20.

B3: Y20 (dsDNA)
DNA 1: TTCGAAACGTGCGCGCCCATACGCCAAGCTTAACGGTGAT
DNA 2: B2 DNA 3
DNA 3: B2 DNA 4
For B3, in the series with D10 helicase (wild type) [3], the binding result was “binds”.

B4: Y20-2 (oligo B nicked) (dsDNA)
DNA 1: B3 DNA 1
DNA 2: B2 DNA 4
DNA 3: ATCACCGTTAAGCTTGGCGT
DNA 4: CGAATTCGAGCTCGGTACCC
In the case of B4, the binding result with D10 helicase (wild type) [4] (nick in strand B at the junction) is listed as “binds”.

B5: Y20-1 (oligo C nicked) (dsDNA)
DNA 1: B3 DNA 1
DNA 2: B2 DNA 3
DNA 3: GGGTACCGAGCTCGAATTCG
DNA 4: ATGGGCGCGCACGTTTCGAA
For the molecule B5, the binding result in the series with D10 helicase (wild type) [4] (nick in strand C at the junction) is reported as “binds”.

B6: NHJ20 (dsDNA)
DNA 1: B3 DNA 1
DNA 2: B2 DNA 3
DNA 3: GGGTACCGAGCTCGAATTCGTGGGCGGTGCCCAACGCATA
DNA 4: TATGCGTTGGGCACCGCCCAATGGGCGCGCACGTTTCGAA
Take B6: the binding result in the series with D10 helicase (wild type) [5] and with D10 R389N was “binds” throughout.

B7: Y20' (dsDNA)
DNA 1: B3 DNA 1 with C18T, A19C, T20G, C22T
DNA 2: B2 DNA 3 with G19A, C21A, G22C, A23G
DNA 3: GGGTACCGAGCTCGAATCGTCGAGGCGCGCACGTTTCGAA
Take B7: in the series with D10 helicase (wild type) [6], the binding result is recorded as “binds”.

(Values after PMC5180179, “Bacteriophage T5 gene D10 encodes a branch-migration protein”.)
